# Numbered stars: 1 amine (or outer) side, 2 acyl side, 3 side chain; on linkers, the order of the positions; unused ones are H or OH. Bridge positions count the residues as written; N and C are the ends. Side chains are listed from the residue outwards. Ends that are not written are not given here. * marks the point of attachment. C20 diacid = O=C(O)CCCCCCCCCCCCCCCCCCC(=O)*; γGlu = O=C(O)[C@H](CCC(=O)[*:2])N[*:1]; AEEA = NCCOCCOCC(=O)O
# T1: rat calcitonin receptor (rat, UniProt P32214 25-516)
# T1 construct: whole, on cells; Membranes prepared from transiently transfected BHK tk'ts 13 cells (Assay VIII); also called rCTR; rCT
# T1 sequence (looked up): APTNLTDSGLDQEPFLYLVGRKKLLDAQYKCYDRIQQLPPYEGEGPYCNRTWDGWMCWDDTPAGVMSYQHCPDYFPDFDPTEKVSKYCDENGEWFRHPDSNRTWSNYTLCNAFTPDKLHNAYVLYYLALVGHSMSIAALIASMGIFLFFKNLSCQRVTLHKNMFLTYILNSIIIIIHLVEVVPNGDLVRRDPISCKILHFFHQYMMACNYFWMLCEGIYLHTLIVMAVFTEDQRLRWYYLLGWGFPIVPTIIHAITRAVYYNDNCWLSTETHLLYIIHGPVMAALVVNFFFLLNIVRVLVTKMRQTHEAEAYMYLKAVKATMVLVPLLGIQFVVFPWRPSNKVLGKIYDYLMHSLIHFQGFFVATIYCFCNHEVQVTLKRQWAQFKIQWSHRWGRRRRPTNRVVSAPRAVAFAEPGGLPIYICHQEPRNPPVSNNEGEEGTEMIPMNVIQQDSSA
# T2: human calcitonin receptor (human, UniProt P30988 25-474)
# T2 construct: whole, on cells; Membranes prepared from a stably transfected BHK cell line (Assay VII); also called hCTR; hCT
# T2 sequence (looked up): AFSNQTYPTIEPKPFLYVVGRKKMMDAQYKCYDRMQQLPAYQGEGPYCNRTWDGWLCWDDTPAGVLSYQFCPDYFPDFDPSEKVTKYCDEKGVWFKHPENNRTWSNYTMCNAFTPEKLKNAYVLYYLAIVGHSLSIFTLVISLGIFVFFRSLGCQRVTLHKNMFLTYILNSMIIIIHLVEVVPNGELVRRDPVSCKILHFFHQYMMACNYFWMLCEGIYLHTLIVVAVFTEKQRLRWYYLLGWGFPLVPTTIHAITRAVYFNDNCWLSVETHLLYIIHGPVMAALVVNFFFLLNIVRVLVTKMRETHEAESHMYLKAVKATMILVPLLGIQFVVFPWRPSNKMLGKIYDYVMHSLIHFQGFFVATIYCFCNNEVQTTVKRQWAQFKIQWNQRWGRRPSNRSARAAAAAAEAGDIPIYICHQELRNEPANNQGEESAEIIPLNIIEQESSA
# T3: rat amylin receptor (rat calcitonin receptor + rat RAMP 3) (rat, UniProt P32214 25-516; Q9JJ73 23-147)
# T3 construct: whole, on cells; Membranes prepared from transiently transfected BHK tk'ts 13 cells (Assay VI); also called rAmylin-R; rAmylin
# T3 sequence (looked up) 1: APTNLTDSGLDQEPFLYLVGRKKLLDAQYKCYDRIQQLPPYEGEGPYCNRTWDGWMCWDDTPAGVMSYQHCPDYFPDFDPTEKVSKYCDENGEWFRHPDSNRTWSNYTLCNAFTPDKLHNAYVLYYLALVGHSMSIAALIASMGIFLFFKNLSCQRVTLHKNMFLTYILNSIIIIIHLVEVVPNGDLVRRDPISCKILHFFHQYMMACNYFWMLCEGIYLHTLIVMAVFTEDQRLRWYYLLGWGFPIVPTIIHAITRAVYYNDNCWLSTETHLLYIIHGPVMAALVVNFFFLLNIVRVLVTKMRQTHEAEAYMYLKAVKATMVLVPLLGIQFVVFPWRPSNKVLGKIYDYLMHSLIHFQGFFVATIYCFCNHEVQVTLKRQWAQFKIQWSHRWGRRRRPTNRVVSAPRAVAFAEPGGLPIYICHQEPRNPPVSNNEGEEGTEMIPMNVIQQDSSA
# T3 sequence (looked up) 2: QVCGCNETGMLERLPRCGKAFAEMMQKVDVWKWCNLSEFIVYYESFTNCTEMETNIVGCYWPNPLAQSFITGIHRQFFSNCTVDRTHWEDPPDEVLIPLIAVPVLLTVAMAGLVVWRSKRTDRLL
# Tests used:
# rat calcitonin receptor [1] = target: T1, rat calcitonin receptor; test: ratio of binding IC50s: rat calcitonin receptor / rat amylin receptor (reference)
# [2] = target: T2, human calcitonin receptor; test: ratio of binding IC50s: human calcitonin receptor / human amylin receptor (reference)
# Protocol: The resulting pellet was resuspended, homogenized and centrifuged (20.000 rpm, 15 min) in a buffer containing 20 mM Na-HEPES and 0.1 mM EDTA (pH 7.4, buffer 2). The resulting pellet was resuspended in buffer 2 and protein concentration was measured (BCA protein Assay, Pierce). The homogenate was kept cold during the whole procedure. The membranes were kept at −80° C. until use. The assay was performed in a 384 well Optiplate (PerkinElmer) in a total volume of 40 ul. Membranes were mixed with SPA beads. Final concentration of membranes 35 ng/μL final and SPA beads was 0.05 mg/well. Test-compounds were dissolved in DMSO and further diluted in assay buffer (50 mM Hepes, pH 7.4, 1 mM CaCl2, 5 mM MgCl₂, 0.1% OA and 0.02% Tween20). […] The final mixture was incubated with shaking at 400 rpm for 120 min at 25° C. prior to centrifugation (1500 rpm, 10 min). Samples were analyzed on TopCounter™ (Packard). The IC₅₀ was calculated using (one site binding competition analysis) GraphPad Prism5 as a measure of receptor affinity.
# Membranes were prepared in the following way; the cells were rinsed with PBS and incubated with Versene for approximately 5 min before harvesting. The cells were flushed with PBS and the cell-suspension was centrifuged for 5 min at 1000 rpm. Cells were homogenized (Ultrathurrax) in a buffer containing 20 mM Na-HEPES and 10 mM EDTA (pH 7.4) and centrifuged at 20.000 rpm for 15 min. The resulting pellet was resuspended, homogenized and centrifuged (20.000 rpm, 15 min) in a buffer containing 20 mM Na-HEPES and 0.1 mM EDTA (pH 7.4, buffer 2). The resulting pellet was resuspended in buffer 2 and protein concentration was measured (BCA protein Assay, Pierce). The homogenate was kept cold during the whole procedure. The membranes were kept at −80° C. until use. Assay was performed in a 384 well Optiplate (PerkinElmer) in a total volume of 40 ul. Membranes were mixed with SPA beads.
# rat calcitonin receptor [3] = target: T1, rat calcitonin receptor; test: SPA competition vs 125I-calcitonin, membranes of BHK cells with rat calcitonin receptor (Assay VIII)
# [4] = target: T3, rat amylin receptor (rat calcitonin …); test: SPA competition vs 125I-rat amylin, membranes of BHK cells with rat calcitonin receptor + rat RAMP3 (Assay VI)
# Protocol: The binding assay was performed using scintillation proximity assay (SPA) beads (RPNQ0001) from PerkinElmer and cell membranes from the Amylin 3(a)/CRE-luc cells (as described in Assay (II)) were used. Membranes were prepared in the following way; the cells were rinsed with PBS and incubated with Versene for approximately 5 min before harvesting. The cells were flushed with PBS and the cell-suspension was centrifuged for 5 min at 1000 rpm. Cells were homogenized (ultrathurrax) in a buffer containing 20 mM Na-HEPES and 10 mM EDTA (pH 7.4) and centrifuged at 20.000 rpm for 15 min. The resulting pellet was resuspended, homogenized and centrifuged (20.000 rpm, 15 min) in a buffer containing 20 mM Na-HEPES and 0.1 mM EDTA (pH 7.4, buffer 2). The resulting pellet was resuspended in buffer 2 and protein concentration was measured (BCA protein Assay, Pierce). The homogenate was kept cold during the whole procedure. The membranes were kept at −80° C. until use. The assay was performed in a 384 well Optiplate (PerkinElmer) in a total volume of 40 ul. Membranes were mixed with SPA beads. Final concentration of membranes 35 ng/μL final and SPA beads was 0.05 mg/well. Test-compounds were dissolved in DMSO and further diluted in assay buffer (50 mM Hepes, pH 7.4, 1 mM CaCl2, 5 mM MgCl₂, 0.1% OA and 0.02% Tween20). […] The final mixture was incubated with shaking at 400 rpm for 120 min at 25° C. prior to centrifugation (1500 rpm, 10 min). Samples were analyzed on TopCounter™ (Packard). The IC₅₀ was calculated using (one site binding competition analysis) GraphPad Prism5 as a measure of receptor affinity.
# Cells were grown in DMEM with 10% FBS and 1% Pen/Strep. Approximately 48 hours after transfection, the cells were harvested and membranes were prepared.
Binder,Ratio rCT/rAmylin binding (rat calcitonin receptor [1]),Ratio hCT/hAmylin binding [2],IC50 (rat calcitonin receptor [3]) [µM],IC50 [4] [µM]
"K([AEEA-γGlu-C20 diacid])CNTATCATQRLAAFLRHSSPNFGAIPSSTPVGSNTY-NH2 (disulfide 2-7; N-terminus assumed; SMILES CC[C@H](C)[C@H](NC(=O)[C@H](C)NC(=O)CNC(=O)[C@H](Cc1ccccc1)NC(=O)[C@H](CC(N)=O)NC(=O)[C@@H]1CCCN1C(=O)[C@H](CO)NC(=O)[C@H](CO)NC(=O)[C@H](Cc1c[nH]cn1)NC(=O)[C@H](CCCNC(=N)N)NC(=O)[C@H](CC(C)C)NC(=O)[C@H](Cc1ccccc1)NC(=O)[C@H](C)NC(=O)[C@H](C)NC(=O)[C@H](CC(C)C)NC(=O)[C@H](CCCNC(=N)N)NC(=O)[C@H](CCC(N)=O)NC(=O)[C@@H](NC(=O)[C@H](C)NC(=O)[C@@H]1CSSC[C@H](NC(=O)[C@@H](N)CCCCNC(=O)COCCOCCNC(=O)CC[C@H](NC(=O)CCCCCCCCCCCCCCCCCCC(=O)O)C(=O)O)C(=O)N[C@@H](CC(N)=O)C(=O)N[C@@H]([C@@H](C)O)C(=O)N[C@@H](C)C(=O)N[C@@H]([C@@H](C)O)C(=O)N1)[C@@H](C)O)C(=O)N1CCC[C@H]1C(=O)N[C@@H](CO)C(=O)N[C@@H](CO)C(=O)N[C@H](C(=O)N1CCC[C@H]1C(=O)N[C@H](C(=O)NCC(=O)N[C@@H](CO)C(=O)N[C@@H](CC(N)=O)C(=O)N[C@H](C(=O)N[C@@H](Cc1ccc(O)cc1)C(N)=O)[C@@H](C)O)C(C)C)[C@@H](C)O, Analogue of human amylin; also called compound 72)",259,247,0.221,0.000851
"K([AEEA-γGlu-C20 diacid])CNTATCATQRLARFLRHSSPNFGAIPSSTNVGSNTY-NH2 (disulfide 2-7; N-terminus assumed; SMILES CC[C@H](C)[C@H](NC(=O)[C@H](C)NC(=O)CNC(=O)[C@H](Cc1ccccc1)NC(=O)[C@H](CC(N)=O)NC(=O)[C@@H]1CCCN1C(=O)[C@H](CO)NC(=O)[C@H](CO)NC(=O)[C@H](Cc1c[nH]cn1)NC(=O)[C@H](CCCNC(=N)N)NC(=O)[C@H](CC(C)C)NC(=O)[C@H](Cc1ccccc1)NC(=O)[C@H](CCCNC(=N)N)NC(=O)[C@H](C)NC(=O)[C@H](CC(C)C)NC(=O)[C@H](CCCNC(=N)N)NC(=O)[C@H](CCC(N)=O)NC(=O)[C@@H](NC(=O)[C@H](C)NC(=O)[C@@H]1CSSC[C@H](NC(=O)[C@@H](N)CCCCNC(=O)COCCOCCNC(=O)CC[C@H](NC(=O)CCCCCCCCCCCCCCCCCCC(=O)O)C(=O)O)C(=O)N[C@@H](CC(N)=O)C(=O)N[C@@H]([C@@H](C)O)C(=O)N[C@@H](C)C(=O)N[C@@H]([C@@H](C)O)C(=O)N1)[C@@H](C)O)C(=O)N1CCC[C@H]1C(=O)N[C@@H](CO)C(=O)N[C@@H](CO)C(=O)N[C@H](C(=O)N[C@@H](CC(N)=O)C(=O)N[C@H](C(=O)NCC(=O)N[C@@H](CO)C(=O)N[C@@H](CC(N)=O)C(=O)N[C@H](C(=O)N[C@@H](Cc1ccc(O)cc1)C(N)=O)[C@@H](C)O)C(C)C)[C@@H](C)O, Analogue of human amylin; also called compound 82)",87,140,0.143,0.00164
"K([AEEA-γGlu-C20 diacid])CNTATCATQRLARFLRHSSPNFGAIPSSTPVGSNTY-NH2 (disulfide 2-7; N-terminus assumed; SMILES CC[C@H](C)[C@H](NC(=O)[C@H](C)NC(=O)CNC(=O)[C@H](Cc1ccccc1)NC(=O)[C@H](CC(N)=O)NC(=O)[C@@H]1CCCN1C(=O)[C@H](CO)NC(=O)[C@H](CO)NC(=O)[C@H](Cc1c[nH]cn1)NC(=O)[C@H](CCCNC(=N)N)NC(=O)[C@H](CC(C)C)NC(=O)[C@H](Cc1ccccc1)NC(=O)[C@H](CCCNC(=N)N)NC(=O)[C@H](C)NC(=O)[C@H](CC(C)C)NC(=O)[C@H](CCCNC(=N)N)NC(=O)[C@H](CCC(N)=O)NC(=O)[C@@H](NC(=O)[C@H](C)NC(=O)[C@@H]1CSSC[C@H](NC(=O)[C@@H](N)CCCCNC(=O)COCCOCCNC(=O)CC[C@H](NC(=O)CCCCCCCCCCCCCCCCCCC(=O)O)C(=O)O)C(=O)N[C@@H](CC(N)=O)C(=O)N[C@@H]([C@@H](C)O)C(=O)N[C@@H](C)C(=O)N[C@@H]([C@@H](C)O)C(=O)N1)[C@@H](C)O)C(=O)N1CCC[C@H]1C(=O)N[C@@H](CO)C(=O)N[C@@H](CO)C(=O)N[C@H](C(=O)N1CCC[C@H]1C(=O)N[C@H](C(=O)NCC(=O)N[C@@H](CO)C(=O)N[C@@H](CC(N)=O)C(=O)N[C@H](C(=O)N[C@@H](Cc1ccc(O)cc1)C(N)=O)[C@@H](C)O)C(C)C)[C@@H](C)O, Analogue of human amylin; also called compound 64)",64.7,126,0.128,0.00197

# Reference: US20140087995A1 (published 2014)
